Source: patent publication US20250032577A1

How the values were obtained:
Gq proteins [1] = molecular target: Gq proteins
Gq proteins [2] = molecular target: Gq proteins; remark: listed apart in the source
Gq proteins [3] = molecular target: Gq proteins; remark: listed apart in the source

| light-induced increase in Ca^2+ signal (Calbryte 630 AM) in HEK 293T cells (Gq proteins [1]) | Ca^2+ transients (Calbryte 630 AM) in primary mouse astrocytes (Gq proteins [2]) | Ca^2+ signal increase in HEK 293T cells (Gq proteins [3]) | Substance |
| --- | --- | --- | --- |
| 3 ΔF/F | 8 ΔF/F | – | Chicken Opn5 (receptor) |
| 3 ΔF/F | – | – | Turtle Opn5 (receptor) |
| – | – | 1 ΔF/F | human OPN4 (from UniProt Q9UHM6) (receptor) |
| – | – | 0.5 ΔF/F | opto-a1AR (receptor) |
